Patent publication US20240279845A1, “METHOD FOR PREPARING A LIBRARY OF PEPTIDES OR A PEPTIDE” (ECOLE POLYTECHNIQUE FEDERALE DE LAUSANNE (EPFL), priority 2021, published 2024)

What was measured:
[1] = system: Cc1cc(=O)oc2cc(NC(=O)[C@H](CCCNC(=N)N)NC(=O)[C@@H]3CCCN3C(=O)[C@@H](NC(=O)OC(C)(C)C)C(C)C)ccc12; test: Substrate KM for protease screen, KLK5; type: biochemical; conditions: other: KLK5
Experimental: (§1) Crude macrocyclic libraries (4 mM DMSO stocks in 384-well LDV plates were transferred into 1536-well microtiter OptiPlates via ADE. Applied buffered solutions were prepared by filtration through PTFE syringe filters (0.22 μm) and assays were initiated by addition of protease (4.41 μl/well) in appropriate buffer (see list below) supplemented with bovine serum albumin (BSA; 0.1% w/v) and dispensed using a CERTUS automated liquid handler. Plates were incubated for 10 min at ambient temperature before fluorogenic substrate in appropriate buffer (4.5 μl) was added using a CERTUS automated liquid handler. Plates were centrifugated (800 g, 2 min) and fluorescence intensity was measured using a PHERAstar plate reader (excitation 384 nm, emission 440 nm) in time increments of 150 s over 15 min. Slopes of fluorescence increase (m) were calculated with Microsoft Excel (vers. 16.56). Negative controls were prepared without macrocycle. An average of 12 negative controls was used to calculate residual activities using Equation I below: […]
(§2) where [S]0 is the initial substrate concentration and KM is the Michaelis-Menten constant^12 for the enzyme and substrate.

[2] = system: Cc1cc(=O)oc2cc(NC(=O)[C@H](CCCNC(=N)N)NC(=O)[C@H](Cc3ccccc3)NC(=O)OCc3ccccc3)ccc12; test: Substrate KM for protease screen, PKal; type: biochemical; conditions: other: PKal
Experimental: as §1, §2

PKal (Homo sapiens), sequence (chain, as listed by the source): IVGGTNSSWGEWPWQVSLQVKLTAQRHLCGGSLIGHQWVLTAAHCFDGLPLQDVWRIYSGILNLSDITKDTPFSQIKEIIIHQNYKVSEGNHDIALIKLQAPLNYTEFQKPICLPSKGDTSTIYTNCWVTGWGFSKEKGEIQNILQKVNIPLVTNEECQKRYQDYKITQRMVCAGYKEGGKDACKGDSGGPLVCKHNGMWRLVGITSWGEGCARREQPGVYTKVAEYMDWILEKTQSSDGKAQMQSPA

For KLK5 (Homo sapiens), the Km [1] was 200 ± 10 µM.
For PKal (Homo sapiens), the Km [2] was 120 ± 28 µM.
